Target: human coagulation factor XII (purchased, not His-tagged) (human)

B1: 1M-265Rdel-hPEPD (domain or fragment)
chain: TIQNGDMCLFDMGGEYYCFASDITCSFPANGKFTADQKAVYEAVLRSSRAVMGAMKPGVWWPDMHRLADRIHLEELAHMGILSGSVDAMVQAHLGAVFMPHGLGHFLGIDVHDVGGYPEGVERIDEPGLRSLRTARHLQPGMVLTVEPGIYFIDHLLDEALADPARASFLNREVLQRFRGFGGVRIEEDVVVTDSGIELLTCVPRTVEEIEACMAGCDKAFTPFSGPK
  FXII activation relative to hPEPD, chromogenic assay (mutant 40 and 400 nM, FXII 0.97 nM, ZnCl2-containing PBS, RT): 50%

— PMC5173032
